± gives the uncertainty stated by the source.

This data set can be described thus: amyloid nucleation score (Sup35N fusion, yeast selection) (log enrichment); library NNK1; higher = more nucleation; inactive = no reads after selection. In outline:
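Nucleation score: DiMSum log enrichment of output over input reads, centred on the mode score of non-aggregating sequences. Only sequences with at least 100 input reads were kept. Reads came from Illumina sequencing of plasmid inserts before and after 7 days of growth at 30°C without adenine and uracil, in psi-negative yeast expressing Sup35N fused to peptides of 20 random codons after 24 hours of induction with 100 μM copper sulfate.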
Turning to TFACGKYVVPFCIYVDR, the amyloid nucleation score was -0.059 ± 0.34.
To TFEALLTVDSYYSFSLVP belongs 1.21 ± 0.4; to TFGGHNVAGASMHGSFGGSL, 0.242 ± 0.3.
Substance TFHAHTLWQGAQVIRQSETR yielded an amyloid nucleation score of 0.053 ± 0.47.
In turn, TFIKNVTNRVHYGNALTHLG displayed an amyloid nucleation score of -0.204 ± 0.66.
The substance TFKRYI showed an amyloid nucleation score of 1.28 ± 0.56.
As for TFLSTLIALISRFSRSESWM, the amyloid nucleation score came to 1.24 ± 0.93.
For the substance TFLWC, the amyloid nucleation score was determined as 0.462 ± 0.4.
Substance TFNGFFCRCPSFKIYFHEVL returned an amyloid nucleation score of 0.825 ± 0.24.
Substance TFQNVLLLGSLVWNNNKS came in with an amyloid nucleation score of 0.24 ± 0.55.
TFSHNIIRSCLTKESVSFP: the amyloid nucleation score result is “inactive”.
For TFSMSQNWVLNCAYLVIGYH, the amyloid nucleation score worked out at 4 ± 0.14.
For the substance TFSRRASDFEVNV, the amyloid nucleation score is -1.25 ± 2.7.
In turn, TFTSLNNVVYIDISDTSDKN displayed an amyloid nucleation score of 3.81 ± 0.073.
TFVYLCVAHS showed an amyloid nucleation score of 1.07 ± 0.53.
TFYGY registered an amyloid nucleation score of -0.487 ± 1.4.
TFYYPINFHTLGLYKLVVML: the amyloid nucleation score worked out at 0.589 ± 0.33.
TGCCFYVSDHF registered an amyloid nucleation score of 7.88 ± 0.071.
Consider TGCRGSVMSFDMLFSYILYL, for which the amyloid nucleation score is 0.205 ± 0.26.
As to TGKSRDNRNVDGNL, the amyloid nucleation score turned out to be 0.063 ± 0.38.
Regarding TGMGGV, the amyloid nucleation score was 0.177 ± 1.2.
Substance TGNCAMFPTWLHVIPFSQY returned an amyloid nucleation score of 3.1 ± 0.14.
For the substance TGNGRWVDFFRYRYGLKSRS, the amyloid nucleation score result is “inactive”.
TGSMVFLMVVAGSCLFGLSE gave an amyloid nucleation score of 0.652 ± 0.24.
Substance TGYFNTRVWLDRLDYVLETN returned an amyloid nucleation score of -0.44 ± 0.29.
To THYYCVLTGKITRRVLYILL belongs -1.13 ± 0.67; to TIFLINIPANFSMGMLHAHR, 0.303 ± 0.86.
As to TIFNLLPMGC, the amyloid nucleation score worked out at 0.975 ± 0.58.
TIFTPNIR came in with an amyloid nucleation score of 0.132 ± 0.66.
As to TISAI, the amyloid nucleation score is 0.142 ± 0.92.
In the case of TISILCQYQVMGTIFIYVVQ, the amyloid nucleation score worked out at 1.66 ± 0.13.
Take TKALLQEVPIT: the amyloid nucleation score amounted to 0.345 ± 1.2.
Regarding TKFIE, the amyloid nucleation score is 1.2 ± 0.37.
On to TKIGKYKFAYCNAIAGARVE, for which the amyloid nucleation score is 0.766 ± 0.87.
To TKIVFIVL belongs 6.02 ± 0.084; to TLCYYLVWRR, 0.076 ± 0.29.
The substance TLDLTHNLCLG had an amyloid nucleation score of 0.491 ± 0.37.
To TLDRWTVWDLR belongs 0.275 ± 0.32; to TLGAVHTVHVRFGESSNVFL, 0.055 ± 0.74; to TLGSIGLAIGRSTTGGRS, 0.51 ± 0.9.
On to TLHYRWECVLCPACRYGLSD, for which the amyloid nucleation score is 1.14 ± 0.68.
Consider TLKAVHTLTTD, for which the amyloid nucleation score amounted to 2.4 ± 0.23.
The substance TLLNDIFLLCCDSTSNDLMC yielded an amyloid nucleation score of 1.56 ± 0.43.
Regarding TLLWGTLSAGHS, the amyloid nucleation score entry was “inactive”.
TLNQHY registered an amyloid nucleation score of 0.025 ± 0.55.
Regarding TLSLFLRKGSRTLRCVCPRG, the amyloid nucleation score was -0.112 ± 0.33.
TLSLTNYELSKQSWMVLC yielded an amyloid nucleation score of -0.236 ± 0.64.
Regarding TLTYPMCGSIG, the amyloid nucleation score was determined as 1.09 ± 0.47.
The substance TLVGKVLADDSRGFINCR registered an amyloid nucleation score of 0.924 ± 0.97.
TMCEYSHFLLRAMNNLMENV: the amyloid nucleation score is -1.57 ± 2.7.
Consider TMGSLMFWF, for which the amyloid nucleation score was -0.356 ± 0.95.
The result for TMHVMVGGYL reads 1.38 ± 0.41; that for TMLMESTIRRRC, -0.021 ± 0.54.
TMLTWASRRLDYFSGALCFM came in with an amyloid nucleation score of -0.119 ± 0.45.
As to TMVCKGSCFWSSWSITFPLQ, the amyloid nucleation score result is “inactive”.
Substance TMVGTMVSMF displayed an amyloid nucleation score of -0.539 ± 0.45.
The result for TMVVNLARRAPPVLPSGRMT reads 0.71 ± 0.74; that for TNDKCHSITVFSYREVDWTW, 0.445 ± 0.29; that for TNKGFQYSGLVYCCWVRYLF, “inactive”.
For the substance TNLMSFY, the amyloid nucleation score is -0.721 ± 1.1.
For TNMRTWFSGSFTILKCTDFQ, the amyloid nucleation score stood at 0.744 ± 0.74.
The result for TPAASIRLTRLPEGLIFI reads 0.47 ± 0.95; that for TPCNVLGNSGPVWSWNP, 0.166 ± 0.81; that for TPLNTLYRLPMGNWLG, 0.06 ± 0.26.
Turning to TPNMCGWLVLTSM, the amyloid nucleation score is -0.448 ± 0.62.
To TPSLLVAVRILAAVMPSWET belongs -0.746 ± 0.43; to TQVSVFQ, -1.3 ± 0.83.
As for TRCASC, the amyloid nucleation score turned out to be 0.3 ± 0.65.
The substance TRCYFNSLMCTDTNSCIAGV registered an amyloid nucleation score of -0.135 ± 0.26.
Substance TRFLLLSLRDGSEQV returned an amyloid nucleation score of 0.577 ± 0.73.
Regarding TRFLNDIVMSIDSSIIDPTC, the amyloid nucleation score is 0.809 ± 0.7.
The result for TRIMVDFLLDWHCRMVKLVN reads 0.33 ± 0.44; that for TRLCFGFWAKIEWMRSVSGV, 0.082 ± 0.64.
The result for TRLKFGGSKHESSQT reads 1.18 ± 0.43; that for TRLSMLIYALTGNVMSGSCV, 0.505 ± 0.46; that for TRMCLRAKSMWVVDSN, 0.068 ± 0.48.
The substance TRMITWRPFRSSWVFTNLYE registered an amyloid nucleation score of 2.04 ± 0.19.
The substance TRMRLPP gave an amyloid nucleation score of -0.299 ± 0.48.
To TRMRSSKSSVA belongs 0.532 ± 0.42; to TRQWGHFSLYGESYFSCI, 0.187 ± 0.63; to TRRHKYFEWD, -0.285 ± 0.8.
The substance TRSMALL yielded an amyloid nucleation score of -0.098 ± 0.71.
On to TRVYIYRTGIWFYLTSNSFT, for which the amyloid nucleation score was 0.577 ± 0.43.
As to TRYPLNISEVFRFDFPNRIP, the amyloid nucleation score is -1.32 ± 2.4.
TRYSTSISGC yielded an amyloid nucleation score of 0.332 ± 0.69.
In the case of TRYTKKWQVLTDWSVGYTGT, the amyloid nucleation score was -0.443 ± 0.41.
The substance TRYVNMIFPPLVCWGDEILW gave an amyloid nucleation score of 0.873 ± 0.77.
In the case of TSFFADYVHTIKLLAPLSVG, the amyloid nucleation score entry was “inactive”.
In turn, TSGHNVIPRGTVSSVVRILY displayed an amyloid nucleation score of -0.498 ± 0.36.
The substance TSINGYSVAKSGGSMYCIGM returned an amyloid nucleation score of -0.194 ± 0.67.
The substance TSIRRRLVRFFFNILPVVGL came in with an amyloid nucleation score of 1.67 ± 0.17.
Consider TSPYAFKRWFSLGLYDLSRF, for which the amyloid nucleation score entry is “inactive”.
With TSRVH, the amyloid nucleation score was 0.228 ± 1.2.
The result for TSRYVFRT reads 0.925 ± 0.58.
Consider TSSMCVFVSGNSEFVLWALE, for which the amyloid nucleation score worked out at 0.286 ± 0.51.
As for TSSPKRFLIMKVNCIIILDL, the amyloid nucleation score is -0.721 ± 0.68.
For TSTSC, the amyloid nucleation score was 0.223 ± 0.51.
The result for TSVNMVIYILLVNFMKFLVG reads 1.37 ± 0.45; that for TSVSARFFFCRKISRMHRSS, -0.885 ± 1.1.
Regarding TSVSNMFENPKNLSLVPTVG, the amyloid nucleation score worked out at 1.94 ± 0.5.
TSYIQW came in with an amyloid nucleation score of -0.359 ± 0.29.
As to TSYQA, the amyloid nucleation score was -0.115 ± 0.22.
To TTASVSSEI belongs -0.441 ± 1.2; to TTEHAK, -0.263 ± 0.2.
In turn, TTFFFDF showed an amyloid nucleation score of 2.59 ± 0.18.
To TTGSALTETATDQVGWNYSL belongs 0.265 ± 0.41.
TTKSLSVSLGGHYYVTRVRR showed an amyloid nucleation score of 0.81 ± 0.83.

Source of the values: the supplement of paper PMC12042874.
